Here are results for 1 molecule from US20230250170A1.

Like-named read-outs stand apart in the source and are kept apart here.

For experiment [1], the target named is human NPR1 on HEK293/hNPR1 cells (human) (UniProt P16066).
Experiment [2] shares this target. The source holds these as a separate data set.
Experiment [3] shares this target. The source holds these as a separate data set.
Experiment [4] shares this target. The source holds these as a separate data set.

human NPR1 on HEK293/hNPR1 cells (human), sequence (P16066 33-1061): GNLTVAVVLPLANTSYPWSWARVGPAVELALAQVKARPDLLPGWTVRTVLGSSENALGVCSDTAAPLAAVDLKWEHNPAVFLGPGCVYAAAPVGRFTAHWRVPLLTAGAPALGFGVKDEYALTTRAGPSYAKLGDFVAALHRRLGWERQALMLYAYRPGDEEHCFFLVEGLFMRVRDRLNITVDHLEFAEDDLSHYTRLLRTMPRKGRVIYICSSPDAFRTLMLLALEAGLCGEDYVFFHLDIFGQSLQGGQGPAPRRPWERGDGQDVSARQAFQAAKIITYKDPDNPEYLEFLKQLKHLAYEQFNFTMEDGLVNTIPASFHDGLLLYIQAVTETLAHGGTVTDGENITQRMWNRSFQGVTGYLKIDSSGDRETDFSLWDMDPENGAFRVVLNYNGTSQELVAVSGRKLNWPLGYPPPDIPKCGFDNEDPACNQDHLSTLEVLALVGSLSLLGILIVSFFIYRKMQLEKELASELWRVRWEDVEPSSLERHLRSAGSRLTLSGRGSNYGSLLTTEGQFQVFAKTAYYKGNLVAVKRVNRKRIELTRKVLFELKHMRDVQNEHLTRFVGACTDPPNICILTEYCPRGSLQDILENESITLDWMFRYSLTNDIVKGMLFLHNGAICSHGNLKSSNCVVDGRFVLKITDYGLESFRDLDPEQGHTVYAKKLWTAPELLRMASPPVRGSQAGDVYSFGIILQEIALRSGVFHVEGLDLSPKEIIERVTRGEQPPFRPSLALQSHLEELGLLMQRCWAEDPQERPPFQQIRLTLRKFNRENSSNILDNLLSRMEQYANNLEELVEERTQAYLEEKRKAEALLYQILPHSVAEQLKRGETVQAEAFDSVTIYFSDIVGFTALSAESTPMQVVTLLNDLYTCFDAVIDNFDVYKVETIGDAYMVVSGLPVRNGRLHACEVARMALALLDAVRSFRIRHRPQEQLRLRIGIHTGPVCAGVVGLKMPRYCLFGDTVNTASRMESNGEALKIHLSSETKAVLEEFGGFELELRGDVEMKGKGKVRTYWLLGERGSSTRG

B1: atrial natriuretic peptide (ANP) (ligand, UniProt P01160 124-151, looked up)
peptide: SLRRSSCFGGRMDRIGAQSGLGCNSFRY
For the molecule B1, in experiment [1], the EC50 (read off the curve); cGMP accumulation, HEK293/hNPR1 cells, ANP after pre-treatment with 50 nM H4H22034N was 600 pM; the EC50 (read off the curve); cGMP accumulation, HEK293/hNPR1 cells, ANP after pre-treatment with 150 nM H4H22034N came out at 600 pM; the EC50 (read off the curve); cGMP accumulation, HEK293/hNPR1 cells, ANP after pre-treatment with 450 nM H4H22034N came out at 600 pM. In addition, in experiment [2], the EC50 (read off the curve); cGMP accumulation, HEK293/hNPR1 cells, ANP after pre-treatment with 50 nM REGN7541 stood at 200 pM; the EC50 (read off the curve); cGMP accumulation, HEK293/hNPR1 cells, ANP after pre-treatment with 150 nM REGN7541 is 800 pM; the EC50 (read off the curve); cGMP accumulation, HEK293/hNPR1 cells, ANP alone (dilution buffer) was determined as 70 pM. In experiment [3], the EC50 (read off the curve); cGMP accumulation, HEK293/hNPR1 cells, ANP after pre-treatment with 50 nM REGN7544 amounted to 300 pM; the EC50 (read off the curve); cGMP accumulation, HEK293/hNPR1 cells, ANP after pre-treatment with 150 nM REGN7544 was 800 pM; the EC50 (read off the curve); cGMP accumulation, HEK293/hNPR1 cells, ANP after pre-treatment with 450 nM REGN7544 stood at 40000 pM; the EC50 (read off the curve); cGMP accumulation, HEK293/hNPR1 cells, ANP alone (dilution buffer) turned out to be 100 pM. Moreover, in experiment [4], the EC50 (read off the curve); cGMP accumulation, HEK293/hNPR1 cells, ANP after pre-treatment with 50 nM REGN7548 came to 700 pM and the EC50 (read off the curve); cGMP accumulation, HEK293/hNPR1 cells, ANP alone (dilution buffer) worked out at 90 pM.
